The results in this text go back to US6403765B1, “Truncated Apaf-1 and methods of use thereof” (Thomas Jefferson University, priority 1998, dated 2002).

Assay [1] relates to procaspase-9. As to the kind of experiment: Autoprocessing of in vitro translated procaspase-9 and Fc-fusion procaspase-9 variants. It counts as biochemical. The conditions noted are these: 35S-labeled, FIG. 9. An excerpt: ^35S-labeled caspases were obtained by in vitro translation in the presence of ^35S-methionine using a coupled transcription/translation system in rabbit reticulocyte lysate using TNT Kit (Promega) according to the manufacturer's recommendations.
Artificially-induced oligomerization of procaspase-1 or procaspase-8 by overexpression or by heterologous-inducible oligomerization systems causes their autocatalytic processing/activation (Gu et al., EMBO 14:1923-1931, 1995; Muzio et al., J. Biol. Chem. 273:2926-2930, 1998; Yang et al., Mol. Cell 1:319-325, 1998). To test if procaspase-9 can also be activated by heterologous oligomerization, WT and the C287A mutant procaspase-9 was fused to the mouse IgG-Fc portion which can form spontaneous dimers by intermolecular disulfide linkages. FIG. 9 depicts processing of non-fusion WT procaspase-9 (pcasp-9, lane 1) or C-terminal Fc-fusion WT (pcasp-9-Fc, lane 2) or C287A (active site) mutant (pcasp-9-C287A-Fc, lane 3) procaspase-9 which were in vitro translated in the presence of ^35S-methionine and then analyzed by SDS-PAGE and autoradiography.

The test system of assay [2] is MCF-7 cells. As to the kind of experiment: Induction of apoptosis in MCF-7 cells transfected with procaspase-9 variants. Type of assay: cell-based. The conditions noted are these: overexpression, 30 hours after transfection, FIG. 10. The text has this: To express the caspases or truncated Apaf-1 in mammalian cells and assay their apoptotic activity, they were amplified with the T7-tag primer and reverse primers using the pET28a constructs as templates, and subcloned into the mammalian double expression vector pRSC-LacZ (MacFarlane et al., J. Biol. Chem., 272:25417-25420, 1997; Tsang et al., Bio/Technology, 22:68, 1997) or as previously described (Li et al., Cell 91:479-489, 1997; Srinivasula et al., J. Biol. Chem., 272:18452-18545, 1997). This vector allows the expression of lacZ under the Rous Sarcoma virus promoter, and the test cDNA under the CMV promoter. To assay for apoptosis, MCF-7 or 293 cells were transfected, using the method commercially available as the Lipofect Amine method (Life Technologies, Inc.), with the pRSC-LacZ constructs in the presence or absence of different apoptosis-inhibitors. 30 h after transfection cells were stained with β-galactosidase and examined for morphological signs of apoptosis. The percentage of round blue apoptotic cells (mean±SD) were determined by phase contrast microscopy and then represented as a function of total blue cells under each condition (n≧3).
In FIG. 10, mammalian expression constructs encoding Fc or the procaspase-9 variants described in FIG. 9 were transfected into MCF-7 cells together with a reporter β-gal expression construct at a ratio of 3:1. […]

B1: WT procaspase-9: non-fusion wild type procaspase-9 (protein)
chain: MDEADRRLLRRCRLRLVEELQVDQLWDALLSRELFRPHMIEDIQRAGSGSRRDQARQLIIDLETRGSQALPLFISCLEDTGQDMLASFLRTNRQAAKLSKPTLENLTPVVLRPEIRKPEVLRPETPRPVDIGSGGFGDVGALESLRGNADLAYILSMEPCGHCLIINNVNFCRESGLRTRTGSNIDCEKLRRRFSSLHFMVEVKGDLTAKKMVLALLELAQQDHGALDCCVVVILSHGCQASHLQFPGAVYGTDGCPVSVEKIVNIFNGTSCPSLGGKPKLFFIQACGGEQKDHGFEVASTSPEDESPGSNPEPDATPFQEGLRTFDQLDAISSLPTPSDIFVSYSTFPGFVSWRDPKSGSWYVETLDDIFEQWAHSEDLQSLLLRVANAVSVKGIYKQMPGCFNFLRKKLFFKTS
As to B1, in assay [1], the “self-processing to large subunit (p35) and small subunit” value is “incapable of processing”. The induction of apoptosis result in assay [2] is reported as “induced little apoptosis”.
